Measured values reported in the Immune Epitope Database (IEDB).
One block for each sequence: values may come before it.

Tests used:
HLA-B*15:17 = test: IEDB peptide-MHC binding, purified MHC/competitive/fluorescence; filed as Kd, often an IC50 or EC50 that approximates it; ≥ and ≤ were set here for values at or beyond the usual limits of such assays
HLA-A*31:01 [1] = test: as above; settings: source organism: Vibrio parahaemolyticus AN-5034
HLA-A*69:01 = test: as above
HLA-B*46:01 = test: IEDB peptide-MHC binding, purified MHC/direct/fluorescence; filed as Kd, often an IC50 or EC50 that approximates it; ≥ and ≤ were set here for values at or beyond the usual limits of such assays
HLA-B*51:01 = test: as above
HLA-A*03:01 = test: as above
HLA-B*48:01 = test: as above
HLA-B*07:02 = test: as above
HLA-B*15:01 = test: as above
HLA-A*02:50 = test: as above
HLA-A*30:01 [2] = test: as above; settings: source organism: Vibrio parahaemolyticus RIMD 2210633
HLA-B*44:02 = test: as above
HLA-A*29:02 = test: as above
HLA-A*02:19 = test: as above
HLA-A*01:01 = test: as above
HLA-B*57:01 = test: as above
HLA-B*58:01 = test: as above
HLA-A*02:11 = test: as above; settings: source organism: Vibrio parahaemolyticus RIMD 2210633
HLA-A*26:03 = test: as above
HLA-B*39:01 [3] = test: as above; settings: source organism: Vibrio parahaemolyticus RIMD 2210633
HLA-A*26:01 = test: as above
HLA-A*02:12 = test: as above
HLA-B*08:01 [4] = test: as above
HLA-A*11:01 = test: as above
HLA-B*27:05 = test: as above
HLA-A*24:03 = test: as above
HLA-A*23:01 = test: as above
HLA-B*40:01 = test: as above
HLA-A*02:01 [5] = test: as above
HLA-A*31:01 [6] = test: as above
HLA-B*38:01 = test: as above; settings: source organism: Escherichia coli O157:H7 str. EC869
HLA-B*18:01 = test: as above; settings: source organism: Escherichia coli O157:H7 str. EC869
HLA-A*26:02 [7] = test: as above; settings: source organism: Escherichia coli O157:H7 str. EC869
HLA-A*30:02 = test: IEDB peptide-MHC binding, purified MHC/competitive/radioactivity; filed as Kd, often an IC50 or EC50 that approximates it; ≥ and ≤ were set here for values at or beyond the usual limits of such assays; settings: source organism: Dengue virus 2 Jamaica/1409/1983
HLA-B*15:02 = test: IEDB peptide-MHC binding, purified MHC/direct/fluorescence; filed as Kd, often an IC50 or EC50 that approximates it; ≥ and ≤ were set here for values at or beyond the usual limits of such assays
HLA-A*02:03 = test: IEDB peptide-MHC binding, purified MHC/competitive/fluorescence; filed as Kd, often an IC50 or EC50 that approximates it; ≥ and ≤ were set here for values at or beyond the usual limits of such assays; settings: source organism: Hepatovirus A
HLA-A*30:01 [8] = test: as above; settings: source organism: Hepatovirus A
HLA-B*15:09 = test: as above; settings: source organism: Hepatovirus A
HLA-B*39:01 [9] = test: as above; settings: source organism: Hepatovirus A
HLA-A*68:02 = test: as above; settings: source organism: Hepatovirus A
HLA-A*26:02 [10] = test: as above; settings: source organism: Hepatovirus A
HLA-B*08:01 [11] = test: as above; settings: source organism: Hepatovirus A
HLA-A*02:01 [12] = test: as above; settings: source organism: Hepatovirus A
HLA-B*35:01 = test: IEDB peptide-MHC binding, purified MHC/direct/fluorescence; filed as Kd, often an IC50 or EC50 that approximates it; ≥ and ≤ were set here for values at or beyond the usual limits of such assays; settings: source organism: Hepatovirus A
HLA-C*06:02 = test: as above; settings: source organism: Hepatovirus A
HLA-C*12:03 = test: as above; settings: source organism: Hepatovirus A
[13] = source organism: Vibrio parahaemolyticus AN-5034
[14] = source organism: Vibrio parahaemolyticus
[15] = source organism: Vibrio parahaemolyticus RIMD 2210633
[16] = source organism: Escherichia coli O157:H7
[17] = source organism: Escherichia coli O157:H7 str. EC869

Sequence: DTWHGFKNM
Kd (HLA-B*15:17; [13]): ≥ 20 µM
Kd (HLA-A*31:01 [1]): ≥ 20 µM
Kd (HLA-A*69:01; [13]): 0.0223 µM
Kd (HLA-B*46:01; [14]): ≥ 20 µM
Kd (HLA-B*51:01; [15]): ≥ 20 µM
Kd (HLA-A*03:01; [14]): ≥ 20 µM
Kd (HLA-B*48:01; [14]): ≥ 20 µM
Kd (HLA-B*07:02; [14]): ≥ 20 µM
Kd (HLA-B*15:01; [14]): ≥ 20 µM
Kd (HLA-A*02:50; [15]): ≥ 20 µM
Kd (HLA-A*30:01 [2]): ≥ 20 µM
Kd (HLA-B*44:02; [15]): ≥ 20 µM
Kd (HLA-A*29:02; [15]): ≥ 20 µM
Kd (HLA-A*02:19; [15]): ≥ 20 µM
Kd (HLA-A*01:01; [14]): ≥ 20 µM
Kd (HLA-B*57:01; [14]): ≥ 20 µM
Kd (HLA-B*58:01; [14]): ≥ 20 µM
Kd (HLA-A*02:11): ≥ 20 µM
Kd (HLA-A*26:03; [15]): 0.011 µM
Kd (HLA-B*39:01 [3]): ≥ 20 µM
Kd (HLA-A*26:01; [15]): 0.171 µM
Kd (HLA-A*02:12; [15]): ≥ 20 µM
Kd (HLA-B*08:01 [4]; [15]): ≥ 20 µM
Kd (HLA-A*11:01; [14]): ≥ 20 µM
Kd (HLA-B*27:05; [14]): ≥ 20 µM
Kd (HLA-A*24:03; [15]): ≥ 20 µM
Kd (HLA-A*23:01; [15]): ≥ 20 µM
Kd (HLA-B*40:01; [14]): ≥ 20 µM
Kd (HLA-A*02:01 [5]; [14]): ≥ 20 µM

Kd (HLA-A*69:01; source organism: Escherichia coli B171): 0.0006 µM
Kd (HLA-B*46:01; [16]): ≥ 20 µM
Kd (HLA-B*51:01; [17]): ≥ 20 µM
Kd (HLA-A*03:01; [16]): ≥ 20 µM
Kd (HLA-B*48:01; [16]): ≥ 20 µM
Kd (HLA-B*07:02; [16]): ≥ 5 µM
Kd (HLA-B*15:01; [16]): 1 µM
Kd (HLA-A*02:50; [17]): ≥ 20 µM
Kd (HLA-B*44:02; [17]): ≥ 20 µM
Kd (HLA-A*29:02; [17]): ≥ 20 µM
Kd (HLA-A*02:19; [17]): ≥ 20 µM
Kd (HLA-A*01:01; [16]): ≥ 20 µM
Kd (HLA-B*57:01; [17]): ≥ 20 µM
Kd (HLA-B*58:01; [16]): ≥ 20 µM
Kd (HLA-A*31:01 [6]; [16]): ≥ 20 µM
Kd (HLA-A*26:03; [17]): ≤ 0.001 µM
Kd (HLA-B*38:01): ≥ 20 µM
Kd (HLA-A*26:01; [17]): 0.004 µM
Kd (HLA-A*02:12; [17]): ≥ 20 µM
Kd (HLA-B*18:01): ≥ 20 µM
Kd (HLA-A*26:02 [7]): ≤ 0.001 µM
Kd (HLA-B*08:01 [4]; [17]): ≥ 20 µM
Kd (HLA-A*11:01; [16]): ≥ 20 µM
Kd (HLA-B*27:05; [16]): ≥ 20 µM
Kd (HLA-A*24:03; [17]): ≥ 20 µM
Kd (HLA-A*23:01; [17]): ≥ 20 µM
Kd (HLA-B*40:01; [16]): ≥ 20 µM
Kd (HLA-A*02:01 [5]; [16]): ≥ 20 µM
Sequence: ETIGLVRAL

Sequence: SQHNYRPGY
Kd (HLA-A*30:02): 0.777 µM
Kd (HLA-B*46:01; source organism: Dengue virus): ≥ 20 µM
Kd (HLA-B*15:02; source organism: Dengue virus): 0.282 µM

Sequence: YMYAVSGAL
Kd (HLA-B*15:17; source organism: Hepatovirus A): 0.181 µM
Kd (HLA-A*02:03): 0.0016 µM
Kd (HLA-A*30:01 [8]): 4.14 µM
Kd (HLA-B*15:09): 0.322 µM
Kd (HLA-B*39:01 [9]): 0.0015 µM
Kd (HLA-A*68:02): 2.12 µM
Kd (HLA-A*26:02 [10]): 4.58 µM
Kd (HLA-B*08:01 [11]): 0.83 µM
Kd (HLA-A*02:01 [12]): 0.0037 µM
Kd (HLA-B*46:01; source organism: Hepatovirus A): 1.77 µM
Kd (HLA-B*35:01): 0.449 µM
Kd (HLA-B*48:01; source organism: Hepatovirus A): 0.0156 µM
Kd (HLA-B*07:02; source organism: Hepatovirus A): ≥ 20 µM
Kd (HLA-C*06:02): ≥ 20 µM
Kd (HLA-B*15:01; source organism: Hepatovirus A): 0.0116 µM
Kd (HLA-A*01:01; source organism: Hepatovirus A): ≥ 20 µM
Kd (HLA-B*57:01; source organism: Hepatovirus A): ≥ 20 µM
Kd (HLA-B*58:01; source organism: Hepatovirus A): ≥ 20 µM
Kd (HLA-A*31:01 [6]; source organism: Hepatovirus A): ≥ 20 µM
Kd (HLA-A*26:03; source organism: Hepatovirus A): ≥ 20 µM
Kd (HLA-C*12:03): 0.231 µM
Kd (HLA-A*11:01; source organism: Hepatovirus A): ≥ 20 µM
Kd (HLA-B*27:05; source organism: Hepatovirus A): ≥ 20 µM
Kd (HLA-B*15:02; source organism: Hepatovirus A): 0.005 µM
